Molecular target: T1, 6xHis-tagged full-length Prp5p (S. cerevisiae, UniProt P21372 1-849)
T1 sequence: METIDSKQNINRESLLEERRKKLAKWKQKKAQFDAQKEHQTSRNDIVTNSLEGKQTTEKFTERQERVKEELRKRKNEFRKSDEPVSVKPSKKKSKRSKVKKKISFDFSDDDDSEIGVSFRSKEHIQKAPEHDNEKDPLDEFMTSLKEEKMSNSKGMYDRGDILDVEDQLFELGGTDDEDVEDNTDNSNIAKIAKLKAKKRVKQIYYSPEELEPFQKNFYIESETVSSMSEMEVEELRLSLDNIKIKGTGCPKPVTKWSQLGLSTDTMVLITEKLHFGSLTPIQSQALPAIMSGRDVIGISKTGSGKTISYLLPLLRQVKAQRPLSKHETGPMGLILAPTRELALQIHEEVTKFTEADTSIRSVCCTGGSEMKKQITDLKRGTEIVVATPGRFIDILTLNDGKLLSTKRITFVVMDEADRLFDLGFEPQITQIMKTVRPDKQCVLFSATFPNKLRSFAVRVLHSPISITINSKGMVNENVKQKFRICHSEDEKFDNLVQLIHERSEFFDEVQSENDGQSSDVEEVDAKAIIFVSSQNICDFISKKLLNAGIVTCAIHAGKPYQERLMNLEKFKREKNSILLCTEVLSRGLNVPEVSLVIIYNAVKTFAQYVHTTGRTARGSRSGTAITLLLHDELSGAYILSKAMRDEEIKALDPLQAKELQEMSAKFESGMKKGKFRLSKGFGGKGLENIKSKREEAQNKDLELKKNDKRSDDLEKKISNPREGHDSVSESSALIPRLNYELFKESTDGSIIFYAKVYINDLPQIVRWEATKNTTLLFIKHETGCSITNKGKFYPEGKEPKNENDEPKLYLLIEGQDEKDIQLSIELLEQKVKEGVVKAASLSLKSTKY
Experiment: pull-down

B1: GST-tagged Spt8p (natural protein, S. cerevisiae, UniProt P38915 1-602, looked up)
chain: MDEVDDILINNQVVDDEEDDEEMLSGLENDSKQDLEGNDDGGEDEEDDDDDDEDDDDDEDEREDDDEQEDDDGEDDAARMDKTATPTNEHQHDEQKAAAAGAGGAGDSGDAVTKIGSEDVKLSDVDGGVGSREASSSTHEASANGEVYEYYKHMLNAAQIADSYNIYPTAAIPIQTHVNALAVSRGLKYLFLGGSDGYIRKYDLLNTLEGKLSLTILQKHSLAESIQNAGILQSYWENEIPQKKSEMKLSANKTDYEPKVSPVHSLEVQSECLFILSGLQNGGITMQGVRYMEGSIAHYFKGRNGHTQIVNILRLNGQEDRFLSGSWDKRLLEWDLQTGDIVNEFKKSRSELSSLEMRPLYSSVDVSGNVNSGKENENADDDMDSLFGDEDEDEKQDAGNEPVETGDGSNGEENKEQISEESLNIVYDESVFMTSGLNGSVHIWDRRMTQSPALSLERGAGVPPWCLSACWGVDGDHVYAGRRNACVEQFDLKMPSKPIHNLKLPSISGPVSCVKAMPNNKHLLCASRDNIRLYNVEIAVDASNSTTKSSKVPFLIVPGHHGGIISNLYLDPTSRFIISTSGNRGWQGNSTDTTLIYDIDLE
Does B1 bind?
Result: binds

Reference: article PMC7293005 (Nucleic Acids Research, 2020)
